Data reported in the nanobody polyreactivity screen of Harvey et al. (2022).

Assay: yeast display, Sf9 membrane polyspecificity reagent, FACS + sequencing; frameworks hold sequencing errors
How it was run: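 Nanobodies from a synthetic yeast display library (Saccharomyces cerevisiae BJ5465), induced 36–48 hours with galactose, were stained 1 hour at 4 °C with 10% biotinylated, detergent-solubilized Sf9 membrane reagent, enriched on streptavidin microbeads, then FACS-sorted. Anti-HA (expression) and streptavidin (reagent binding) fluorescence set low and high (top ~1%) gates. Polyreactivity labels come from the gate of origin. Genes were colony-PCR amplified, MiSeq 2 × 250 sequenced and filtered by CDR length.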

QVQLVESGGGLVQAGGTLRLSCSASGSIFGIYAMGGYRHAPGKESELVAAITSGGSTYADSVKGRFTISRDNAKNTVYLQMNSLKPVDTAVYFCAAYGRDIGGYDYWGQGSQVTVSS
polyreactivity (PSR sort gate): low polyreactivity

QVQLVESGGGLVQAGGTLRLSSAPTGSNFSAYAKGWYREAPGKERELVAAISTSGYTNYADSVKGRFTISRDKALNTVYLQMNSLKPEDTAVSYCAADRDYGDGTAGYGYEFDYWGQGTQVTVSS
polyreactivity (PSR sort gate): low polyreactivity

QVQLVESGGGLVQAGGTLRLTCAASGTFYGNNMGWYIHAPGKQRELVATIRRSTGSTYYADSVKGRFTISRDNAKNTVYLQMNSLKPEDTAVYYCAAEIYSYYRLYWYDYRGQGTQVTVSS
polyreactivity (PSR sort gate): high polyreactivity

QVQLVESGGGLVQAGGTLSLSCAATGRNFYCYAMGWYRQAHGKERELVAAINWSGGTTYYADSVKGRFTISRDNAKNTVYLQMNSLKPEDTAVYYSAADRILEMGYWGQGTQVTVSS
polyreactivity (PSR sort gate): low polyreactivity

QVQLVESGGGLVQAGGTRRLSCAASGSIFYYYAMGWYRQAPGKERELVAAINRGVGSTFYADSVKGRFTISRDNAKNTVYLQMNSLKPEDTAVYYCAVELNQVTPGLGYITLDYWGQGTQVTVSS
polyreactivity (PSR sort gate): low polyreactivity

QVQLVESGGGLVQAGLTLRLSCAASGRIFYPYAMVWYRQAPGKERELVAYNTRSGGSTRYADSVKGRFTISRDNAKNTLYLQMNSLITEDTAVDYCAARTWGRRSSSWGGYYWGQGTQVTVSS
polyreactivity (PSR sort gate): high polyreactivity

QVQLVESGGGLVQAGRNLRLSCAASGRTFYNNVMGWYRQAPGKERELVAAIDWNDGSTYYADSVKGRFTISRDKAKNTVFLQMNSLKPEDTAVYYCAADAYGYGGDSWGQGTQVTVSS
polyreactivity (PSR sort gate): low polyreactivity

QVQLVESGGGLVQAGRSHRLSCAASGIIFYKYAMGWYRQAPVKERELVAAISGTGGSTYYADSVKGRFTISRDNAKNTVYLQMNSVTAEDPAVYYCAATHYSFSWGYDYWGQGTQGTVSS
polyreactivity (PSR sort gate): high polyreactivity

QVQLVESGGGLVQAGRSIRLSCAASGSTFAKYAMGWYRQAPAKERELVAAISSSGSRTYYADSVKGRFTISRDYAKNTVYLQMNILKTEDTAVYYCAALIVKPGGRVYYGGQGTQVTVSS
polyreactivity (PSR sort gate): high polyreactivity

QVQLVESGGGLVQAGRSLRLICAASGRTFVYYAMGWYRPAPGKERELVAAITWSGGRTYYADSVKGRFTISRDNAKNTVYLQMNSLKQEDTAVYYCNRDQWPWESGYAYNYWGQGTQVTVSS
polyreactivity (PSR sort gate): low polyreactivity

QVQLVESGGGLVQAGRSLRLLSAASGSSIYFNGMGWYRQAPGKERELVAAITSGGSTDYADSVKGRFTISRDNEKNSVYLLMYSLKPEDTAVYYCNVQNGDRQITGYDYWGLGTQVTVSS
polyreactivity (PSR sort gate): low polyreactivity

QVQLVESGGGLVQAGRSLRLSCAASGFPFYQYAMGWYRQAPGQERELVAAITWSRGDTYYADSVKGRFTISRDNAKNTVYLQMNSLKPEDSAVFNCNADDRPRGPYYDSFDYRGDYWGQGTQVTVSS
polyreactivity (PSR sort gate): low polyreactivity

QVQLVESGGGLVQAGRSLRLSCAASGLIFVNYAMGWYRPAPGHERELVAASTRSGGRTYYADSVKGRFTISRDNAKNRRYLHMNSLKPVDTAVYYCAAYVRSATLRVNYGYWGQGTQVTVSS
polyreactivity (PSR sort gate): high polyreactivity

QVQLVESGGGLVQAGRSLRLSCAASGLISRRNAMGWYRQAPGKQRELVAAISTGSSTNYADSVKGRFTISRDNAKNTVYLQMNSLKPEDTAVYYCASTQYWWSTLGIRDDYWGQGTQVTVSS
polyreactivity (PSR sort gate): low polyreactivity

QVQLVESGGGLVQAGRSLRLSCAASGLTFKWYAMGWYRQAPGKERELVAAISRDGSTYYADSVKGRFTISRDNAKNTVYLQMNSLKPEDTAVYDCAADIWPSSLLADEYDYWGQGTQVTVSS
polyreactivity (PSR sort gate): high polyreactivity

QVQLVESGGGLVQAGRSLRLSCAASGRIFGWYAMGWYRQAPGKERELVAAIRWSGGSTYADSVKGRFTISRDNAKNTVYLQMNSLKPEDTAVYYCAALQRTGPYAGSSGYWGQGTQVTVSS
polyreactivity (PSR sort gate): high polyreactivity

QVQLVESGGGLVQAGRSLRLSCAASGRIFKYNAMGWYRQAPGKERELVAVITSGGSTYYADSEKGRFTISRDNAMNTDSLQKNSLKQVDTAVYYCNSPYARYYTRYSAYDYWGQGTQVTVSS
polyreactivity (PSR sort gate): low polyreactivity

QVQLVESGGGLVQAGRSLRLSCAASGRIFRVNAMGWYRQAPRKERQLVAAISVRGGSTYYADSVKGRFTISRDNAKNTVYLQMNSLKPEDTAVYYCAAPLVYFTPRYDYWGQGTQVTVSS
polyreactivity (PSR sort gate): high polyreactivity

QVQLVESGGGLVQAGRSLRLSCAASGRIFYPYAMGWYRQAPGKERELVAAIRWSSGNTRYADSVKGRFTISRDNAKNTVYLQMNSLKPEDTAVYYCAADTTVFFYRYDYWGQGTQVTVSS
polyreactivity (PSR sort gate): high polyreactivity

QVQLVESGGGLVQAGRSLRLSCAASGSIFTYYAMGWYRQGPGQERELVAAINWSGGGTYYADSLKGRFTISRDNAKINVYLQMNSLKPEDTAVYYCNALRKTYRLDYWGQGTQVTLSS
polyreactivity (PSR sort gate): high polyreactivity

QVQLVESGGGLVQAGRSLRLSCAASGSTFGSNAMGWYRLAPGKERELVAAITRRGGSTYYADSEKGRFTISRDNAKNTVYLQMNSLKPEDTAVYYCAAQIHPRRDYSAFDYWGQGTQVTVSS
polyreactivity (PSR sort gate): low polyreactivity

QVQLVESGGGLVQAGRSLRLSCAASGSTFRQNAMGWYRQAPGKERELVAGITFSSGSTYYADSVKGRFTISRDIAKNTLYLQMNSLKPEDTAVYYCAVRNASKNRKYYYWGQGTQVTVSS
polyreactivity (PSR sort gate): high polyreactivity

QVQLVESGGGLVQAGRSLRLSCAASGSTFWPNAMGWYRPAPGKERELVAAITSGGRTKYADSVKGRFTISRDNAKNTVYLQMNSLKPEDTAFYYCAKRKGDRGAWIHAYGWEDVDYWGQGTQVTVSS
polyreactivity (PSR sort gate): low polyreactivity

QVQLVESGGGLVQAGRSLRLSCAASGSTIVGYAIGWYRQAPGKDRELVAAISGSGTSTYYADSVKGRFTISRDNAKNTVYLHMISMKPEHTAVYYCIADPIFVYSSYNFWGQGTQVTVSS
polyreactivity (PSR sort gate): low polyreactivity

QVQLVESGGGLVQAGRSLRLSCAASGTTFVIYDMGWSRQAPGKERDLVAGNSYSGGSTYYADSVKGRFTISRDNAKNTVYLQMNSLKPEDTAVYYCNAGVLVLLYAYLPSDLEYWGQGTQVTVSS
polyreactivity (PSR sort gate): low polyreactivity

QVQLVESGGGLVQAGRSLRLSCAASGYTFYFYAKGWSRQAPGKDRELVASMTWRGGSPYYADSVKGRFTISRDNAKNTVYLQMNSLKPEETADYYCAKHVYYIYDYWGQGTQVTVSS
polyreactivity (PSR sort gate): low polyreactivity

QVQLVESGGGLVQAGRSLRLSCAPSGLTISSNAMGGYRQAPGKERELVAGISRRGGRTYYADSVKGRFTISRDTAKHTVYLQMNSLKPEDTAVYYCAADRVGNSYDYWGQGTQGTVSS
polyreactivity (PSR sort gate): high polyreactivity

QVQLVESGGGLVQAGRSLRLSCSASGFSFSFYSMGWYRQAPGKERELVAAISQSGGSTYYADSVKGRFIISLDNAKHTVYLQKNSLKPEDTAVYYCNRGLRRHQSDDYWGQGTQVTVSS
polyreactivity (PSR sort gate): high polyreactivity

QVQLVESGGGLVQAGRSLRLTCAASGRIFNPYAMGWYRQAPGKERELVAAISRGGRTYYADSVKGRFTISRDNAKNTVYLQMNSLKPEDTAVYYCNAGRGLREDDYWGQGTQVTVSS
polyreactivity (PSR sort gate): low polyreactivity

QVQLVESGGGLVQAGRSNRLSCAASGSLFPDYTMGWYRQAPGQERELVAGSTWNRGGTYYADSVKGRFTISRDNAKNTVYLQMNILKPEDTAVYYCAAEWSGSRSSGAWGPYNYWGQGSQVTVSS
polyreactivity (PSR sort gate): low polyreactivity

QVQLVESGGGLVQAGRTLRLSCAASGFIFFDNAMGWYRQAPGKERELVAVISSSGTSTYYADAVKGRFTISRDNAKNTVYLQMNSLKPDDTAVYYCNATARTGVYLESDYWGQGTQVTVSS
polyreactivity (PSR sort gate): low polyreactivity
